The record followed here is publication PMC5458078, “Global mapping of CARM1 substrates defines enzyme specificity and substrate recognition” (Nature Communications, 2017).

Experiment [1] has as its system BAF155, MED12, PABP1, NCOA3 and TET2. Kind of experiment: Co-immunoprecipitation of BAF155, MED12, PABP1, NCOA3 and TET2 with FLAG-tagged CARM1, western blot. Format: cell-based. The following applies: FLAG-tagged construct transiently transfected in HEK293T CARM1 KO cells; anti-FLAG IP. An excerpt:
The structure of the N-terminal domain of CARM1 (residues 28–140) resembles those of the EVH1 domains, a subfamily of PH domains that bind proline-rich sequences. With our discovery that CARM1 substrates contain proline-rich motifs, we posited that the protein's N-terminal domain may be required for substrate recognition. To test this hypothesis, we generated three CARM1 constructs: one full-length (CARM1 FL) and two N-terminal truncations CARM1 28–608 and CARM1 140–608 (Fig. 3a). […] We transiently transfected the three FLAG-tagged CARM1 fusion constructs in HEK293T CARM1 KO cells. CARM1 was immunoprecipitated from all three cell lines using anti-FLAG M2 resin, and four known CARM1 substrates/interactors (that is, BAF155 (ref. [20]), MED12 (ref. [30]), PABP1 (ref. [36]) and NCOA3 (ref. [19])) and newly identified TET2 were detected by western blotting. […] To globally assess the magnitude of reduction in CARM1–substrate interactions induced by the loss of the EVH1 domain, we visualized overall protein changes in CARM1 immunoprecipitates by western blotting using the ADMA antibody (Fig. 3c).
(§1) Cells were collected by trypsinization, washed with Dulbecco's phosphate buffer saline (Life Technologies, Carlsbad, CA) and lysed by suspension in lysis buffer (50 mM Tris-HCl pH 8.0, 150 mM NaCl, 10% glycerol, 0.5% Triton X-100 and 1 × protease inhibitor cocktail (Sigma-Aldrich)). After brief sonication followed by centrifugation, total protein was quantified using the BioRad Protein Assay (BioRad, Hercules, CA), and 20 μg protein was resolved by SDS–PAGE. Proteins were transferred to a nitrocellulose membrane for 1.5 h at 350 mA. Membranes were blocked with 5% nonfat milk at room temperature for 1 h and incubated overnight with diluted primary antibody at 4 °C. Membranes were then washed and incubated with HRP-conjugated secondary antibody for 1 h at room temperature. Signal was visualized by enhanced chemiluminescence reagents (Thermo Scientific, Rockford, IL) and X-ray film exposure followed by scanning and digitalization. […]
A general note: Immunoblotting shows a protein as a band on a membrane.

A further experiment deals with HEK293T CARM1 KO cells. Kind of experiment: Total ADMA-containing proteins co-precipitated with FLAG-tagged CARM1, western blot. Format: cell-based. As to conditions: FLAG IP probed with ADMA antibody; compared with CARM1 FL and CARM1 28–608. The source says:
The structure of the N-terminal domain of CARM1 (residues 28–140) resembles those of the EVH1 domains, a subfamily of PH domains that bind proline-rich sequences. With our discovery that CARM1 substrates contain proline-rich motifs, we posited that the protein's N-terminal domain may be required for substrate recognition. To test this hypothesis, we generated three CARM1 constructs: one full-length (CARM1 FL) and two N-terminal truncations CARM1 28–608 and CARM1 140–608 (Fig. 3a). […] We transiently transfected the three FLAG-tagged CARM1 fusion constructs in HEK293T CARM1 KO cells. CARM1 was immunoprecipitated from all three cell lines using anti-FLAG M2 resin, and four known CARM1 substrates/interactors (that is, BAF155 (ref. [20]), MED12 (ref. [30]), PABP1 (ref. [36]) and NCOA3 (ref. [19])) and newly identified TET2 were detected by western blotting. […]
Cells were collected by trypsinization, washed with Dulbecco's phosphate buffer saline (Life Technologies, Carlsbad, CA) and lysed by suspension in lysis buffer (50 mM Tris-HCl pH 8.0, 150 mM NaCl, 10% glycerol, 0.5% Triton X-100 and 1 × protease inhibitor cocktail (Sigma-Aldrich)). After brief sonication followed by centrifugation, total protein was quantified using the BioRad Protein Assay (BioRad, Hercules, CA), and 20 μg protein was resolved by SDS–PAGE. […]

Another experiment relates to MCF7 CARM1 KO cells. In words: In vivo methylation of BAF155, stable expression, western blot. Format: cell-based, human.
Source text: We next sought to assess the impact of CARM1 N-terminal deletion in cells stably expressing mutant enzymes. […] To quantify the affected ADMA-containing peptides in MCF7 CARM1 KO and CARM1 140–608 expressing cells, we employed our quantitative MS method (Fig. 1a) using CARM1 28–608 as a reference for normalization (Supplementary Data 4). […] The magnitude of reduction in CARM1 140–608 cells, however, was slightly less than that in the CARM1 KO cells. […] As indicated by R^2 of 0.65, noticeable differences existed between the levels of ADMA-containing peptides in cells expressing the N-terminal truncation of CARM1 and CARM1 28–608 control (Supplementary Fig. 4f).
as §1, with “°C.” for “°C. Membranes were then washed and incubated with HRP-conjugated secondary antibody for 1 h at room temperature. Signal was visualized by enhanced chemiluminescence reagents (Thermo Scientific, Rockford, IL) and X-ray film exposure followed by scanning and digitalization.”

Experiment [2] deals with total cell lysates derived from MCF7 CARM1 KO cells. In words: In vitro methylation of total cell lysates by recombinant CARM1 proteins, autoradiography. As to conditions: 3H-SAM, 1–4 h, 30 °C. Format: biochemical, human. The protocol:
The FL and N-terminal domain-deleted version of human CARM1 cDNAs, and other PRMT FL cDNAs were cloned into pFN21K Halo Tag CMV Flexi mammalian expression vector (Promega, Madison, WI) using the unique Sgfl and Pmel site[55]. To express the protein, DNA constructs were transiently transfected into HEK293T CARM1 KO cells in 15 cm dishes using transIT-LT1 reagent (Mirus Bio, Madison, WI) according to the manufacturer's protocol. Proteins were allowed to express for 48 h. Cell pellets were then collected and lysed in lysis buffer (50 mM HEPES, pH 7.5, 150 mM NaCl, 0.005% NP-40, 0.5 mM EDTA, supplemented with 1 × protease inhibitor cocktail before use). The cells were sonicated on ice using a Branson Sonifier 450 with a microtip at 35% amplitude (10 s on, 30 s off, 6 cycles). […] The resin was centrifuged at 3,000 r.p.m. for 5 min, and the supernatant containing the cleaved protein was collected and protein concentration was determined using the Bradford assay (Thermo Scientific, Rockford, IL). Protein purity was assessed by running SDS–PAGE and Coomassie Blue staining.
Purified recombinant enzyme and substrates were incubated in methylation buffer (50 mM Tris-HCl, pH 8.0, 100 mM NaCl and 0.5 mM EDTA) for 1–4 h at 30 °C in the presence of 1 μl radioactive S-adenosyl-L-[methyl-^3H] methionine. […] Protein methylation was detected by autoradiography.

B1: CARM1 140–608: CARM1 140–608 lacks the first 140 residues encompassing the EVH1 domain (protein)
chain: RTEESSAVQYFQFYGYLSQQQNMMQDYVRTGTYQRAILQNHTDFKDKIVLDVGCGSGILSFFAAQAGARKIYAVEASTMAQHAEVLVKSNNLTDRIVVIPGKVEEVSLPEQVDIIISEPMGYMLFNERMLESYLHAKKYLKPSGNMFPTIGDVHLAPFTDEQLYMEQFTKANFWYQPSFHGVDLSALRGAAVDEYFRQPVVDTFDIRILMAKSVKYTVNFLEAKEGDLHRIEIPFKFHMLHSGLVHGLAFWFDVAFIGSIMTVWLSTAPTEPLTHWYQVRCLFQSPLFAKAGDTLSGTCLLIANKRQSYDISIVAQVDQTGSKSSNLLDLKNPFFRYTGTTPSPPPGSHYTSPSENMWNTGSTYNLSSGMAVAGMPTAYDLSSVIASGSSVGHNNLIPLANTGIVNHTHSRMGSIMSTGIVQGSSGAQGSGGGSTSAHYAVNSQFTMGGPAISMASPMSIPTNTMHYGS
modifications: left off: FLAG, end not stated, kept
notes: CARM1 140–608 lacks the first 140 residues encompassing the EVH1 domain
Turning to B1, the “Co-precipitation of BAF155, MED12, PABP1, NCOA3 and TET2” value in experiment [1] is given as “substantially lower amounts of them were detected”. The “Abundance of CARM1-interacting (ADMA-containing) proteins” value in the experiment on HEK293T CARM1 KO cells is on record as “global decrease in abundance of CARM1-interacting proteins”. Further, the “In vivo methylation of BAF155” value in the experiment on MCF7 CARM1 KO cells is on record as “impaired in vivo methylation of BAF155”. Besides, the “Total protein methylation of cell lysate” value in experiment [2] was “substantial reduction of total protein methylation”.
